Columns and labels:
[1] = test system: EPOR; assay: Time-series immunoblot of EPOR protein level; assay type: cell-based, rat; conditions: PC12 cells; 1 nM; normalized by β-Actin; n = 3
Method: (§1) PC12 or HT-22 cells were lysed in 100 mM Tris-Cl (pH 6.8) with 4% SDS. The lysates were loaded onto sodium dodecyl sulfate-polyacrylamide gel electrophoresis (SDS-PAGE) (8–10%), and the proteins were transferred onto the nitrocellulose membrane. The membrane was blocked with 0.1% TBST and 5% non-fat dry milk at 25°C for 30 min. Primary antibodies were diluted in 0.1% TBST and 3% bovine serum albumin (BSA). The primary antibodies included anti-pJAK2 (#3776, Cell Signaling Technology, USA), anti-JAK2 (#3230, Cell Signaling Technology, USA), anti-pSTAT5 (#9351, Cell Signaling Technology, USA), anti-STAT5 ([…], Cell Signaling Technology, USA), anti-pAKT (#9271, Cell Signaling Technology, USA), anti-AKT (#9272, Cell Signaling Technology, USA), anti-pERK (#9101, Cell Signaling Technology, USA) anti-ERK (#9102, Cell Signaling Technology, USA), anti-EPOR (#sc-365662, Santa Cruz Biotechnology, USA), anti-β-Actin (Santa Cruz Biotechnology, USA), anti-Bax (Santa Cruz Biotechnology, USA), anti-cleaved Casp3 (Cell Signaling Technology, USA), and anti-cleaved Parp1 (Cell Signaling Technology, USA).

[2] = test system: mouse ischemic model; assay: Middle cerebral artery occlusion (MCAO) and reperfusion, TTC staining of brain; assay type: in vivo; conditions: MCAO 90 min, 24 h reperfusion, intravenous reEPO 2000 IU/kg (n = 4)
Excerpt: The protocol of this experiment was approved by the Animal Care and Use Committee of the Keimyung University School of Medicine. After 1 week of acclimatization, mice were anesthetized with 3% isoflurane in a mixture of 70% N2O and 30% O2, and the anesthesia was maintained with 1.5–2.0% isoflurane. After the neck skin incision, the bifurcation of the common carotid artery was exposed. The external carotid artery was ligated, and the internal carotid artery was carefully isolated from the vagus nerve. A microvascular clip was placed across the right common carotid artery. Through the external carotid stump, a 7–0 surgical nylon monofilament with silicon coat was advanced into the right internal carotid artery up to the origin of the middle cerebral artery. […] During the surgery, rectal temperature was monitored and maintained at 37 ± 0.5 °C with a feedback-controlled heating pad (CMA 150, Stockholm, Sweden). […]
The brain was rapidly dissected out and coronally sliced into 2-mm-thick sections. […] The infarct volumes of the TTC-stained brain sections were imaged with a digital camera and analyzed. Using NIH ImageJ software (NIH, USA), the intensity of TTC in MCAO- and no-MCAO-performed hemispheres were digitally measured, and the ratio (MCAO versus non-MCAO) was presented as a percentage.

[3] = test system: cleaved Parp1; assay: Immunoblot of cleaved Parp1 after hypoxia and re-oxygenation; assay type: cell-based, mouse; conditions: HT-22 cells; reEPO 0.5 IU/ml, ML1-h3 1 ng/ml; normalized by β-Actin; n = 6
Method: as §1
The HT-22 cells were seeded onto 96-well or 6-well plates. The next day, HT-22 cells were placed inside a sealed air-tight container consisting of an anaeropack (Mitsubishi Gas Company, Tokyo, Japan), which can induce a hypoxic atmosphere by absorbing oxygen and generating carbon dioxide. […]

[4] = test system: rat primary cortical neurons; assay: Viability (Calcein-AM) under glutamate-induced excitotoxicity; assay type: cell-based; conditions: glutamate (30 μM) for 24 h, reEPO 0.5 IU/ml, peptides 1 ng/ml, n = 3, Fig. 4e
Method: On the embryonic day 17, embryonic cerebral cortices were dissected from pregnant Sprague–Dawley rats. The cerebral cortices were treated with 0.25% trypsin-EDTA (#25200056, Gibco, USA) and then mechanically dissociated into single cells by pipetting. The dissociated cells were plated on 96-well plates coated by 50 μg/ml poly-L-lysine (P8920, Sigma-Aldrich, USA) at a density of 2.5 × 10^4 cells per well. They were incubated in neurobasal medium (#21103049, Gibco, USA) containing 2% B27 supplement (#17504044, Gibco, USA), 0.5 mM L-glutamine (#15430614, Gibco, USA), 25 μM glutamic acid (#G1251, Sigma-Aldrich, USA), and 1% penicillin/streptomycin (#15140122, Gibco, USA) at 37°C with 5% CO2. The medium was changed to a fresh medium without glutamate every 3–4 days, and on day 10, glutamic acid (30 μM) was added to induce excitotoxicity in the cells treated with or without reEPO and peptides.
To measure the viability of rat primary cortical neurons, we used Calcein-AM (#C3100MP, Invitrogen, USA). Cultured rat cortical neurons plated on 96-well plates (2.5 × 10^4 cells per well) were incubated with Calcein-AM (3 μM) for 30 min after various treatments. The intensity of the Calcein-AM signal (excitation, 485 nm; detection 535 nm) was measured by using a micro plate reader (VersaMax, Molecular Devices, USA).

[5] = test system: male mice (C57BL/6 N); assay: Measurement of the hematopoietic effect after repeated subcutaneous injection; assay type: in vivo; conditions: mouse, three times a week for four weeks, reEPO 150 IU/kg, ML1-h3 0.2 mg/kg
Method: The protocol of this experiment was approved by the Animal Care and Use Committee of the DGIST (DGIST-IACUC-21090804-0000). After two weeks for quarantine and acclimatization, male mice (C57BL/6 N, Koatech, Korea) were subcutaneously injected with vehicle (n = 6), reEPO (n = 6, 150 IU/kg), or ML1-h3 (n = 6, 0.2 mg/kg) three times a week for four weeks. After three days of final injection, they were anesthetized by injection of zoletil (50 mg/kg), and their blood was gathered from posterior vena cava into an EDTA-coated tube (#367863, BD Vacutainer, USA) using a syringe. The blood samples were analyzed by an automatic hematology analyzer (#ADIVIA 2120i, SIEMENS Healthineers, Germany) in DGMIF (Korea).

For “reEPO: Recombinant human EPO (Epoetin-α, CJ HealthCare Corporation)”, the “Level of EPOR protein over time” value [1] was “gradually decreased by reEPO for 15–45 min, and subsequently, it rapidly recovered to the basal level at 60 min”, the “TTC staining in MCAO-performed versus contralateral side (brain injury)” value [2] was “inhibited extinction of TTC-staining in MCAO-performed side” and the “Level of cleaved Parp1 under H/R” value [3] was “efficiently reduced the levels of Bax, cleaved Caspase 3, and cleaved Parp1”. The “Neuroprotective effect against glutamate-induced excitotoxicity (viability)” value [4] was “showed a neuroprotective effect against glutamate-induced excitotoxicity”, the Body weight ([5]; n = 6) was “No significant difference” and the “Cell number of platelet” value ([5]; n = 6, versus vehicle) was “did not significantly affect”. The Content of haemoglobin ([5]; n = 6, versus vehicle) was “dramatically increased”, the Hematocrit level ([5]; n = 6, versus vehicle) was “dramatically increased” and the Number of erythrocytes ([5]; n = 6, versus vehicle) was “dramatically increased”. For the same substance, the “Number of granulocytes, including neutrophils and eosinophils” value ([5]; n = 6, versus vehicle) was “considerably decreased”, the Number of lymphocytes ([5]; n = 6, versus vehicle) was “did not significantly affect” and the Number of monocytes ([5]; n = 6, versus vehicle) was “did not significantly affect”. The Number of reticulocytes ([5]; n = 6, versus vehicle) was “dramatically increased” and the “Total number of white blood cells” value ([5]; n = 6, versus vehicle) was “did not significantly affect”.

— paper PMC8715119, “Second-generation non-hematopoietic erythropoietin-derived peptide for neuroprotection” (Redox Biology, 2021)
